Data as given in PMC3169412, “Structure of 3-ketoacyl-(acyl-carrier-protein) reductase from Rickettsia prowazekii at 2.25 Å resolution” (Acta Crystallographica Section F: Structural Biology and …, 2011).

Target: the molecule itself
Test: crystal structure

B1: 3-ketoacyl-(acyl-carrier-protein) reductase (FabG) from Rickettsia prowazekii strain Madrid E (enzyme)
chain: MIDLTGKTSLITGASSGIGSAIARLLHKLGSKVIISGSNEEKLKSLGNALKDNYTIEVCNLANKEECSNLISKTSNLDILVCNAGITSDTLAIRMKDQDFDKVIDINLKANFILNREAIKKMIQKRYGRIINISSIVGIAGNPGQANYCASKAGLIGMTKSLSYEVATRGITVNAVAPGFIKSDMTDKLNEKQREAIVQKIPLGTYGIPEDVAYAVAFLASNNASYITGQTLHVNGGMLMV
notes: also called 3-ketoacyl-(ACP) reductase; 3-oxoacyl-(acyl-carrier-protein) reductase; not shown: His6, N-terminal, kept
**Q.** With B1 as the protein, how does the “stoichiometry N” value read?
**A.** 4
